Target: Recombinant HSP with AVI and HIS tag (16 kDa heat shock protein of Mycobacterium tuberculosis) (Mycobacterium tuberculosis) (UniProt P9WMK1)
Assay: native MS

Recombinant HSP with AVI and HIS tag (16 kDa heat shock protein of Mycobacterium tuberculosis) (from UniProt P9WMK1 1-144) (natural protein)
stoichiometry N: 2

— paper PMC3667823
